# Results taken from patent publication US20210380703A1.
# Substitutions are numbered along the chain they refer to.
# B1: 367_A11 (antibody, V domains shown)
# VH: EVQLLESGGGLVQPGGSLRLSCAASGFTFSSYGMHWVRQAPGKGLEWVSGINYNGGYTSYADSVKGRFTISRDNSKNTLYLQMNSLRAEDTAVYYCARSATWHDTHLDYWGQGTLVTVSS
# VL: DIQMTQSPSSLSASVGDRVTITCRASQSILSYVNWYQQKPGKAPKLVIYATTSLASGVPSRFSGSGSGTDFTLTISSLQPEDFATYYCQQSYNSPLTFGGGTKVEIK
# B2: 373_E08 (antibody, V domains shown)
# VH: B1 VH with S30D, H35N, G55S
# VL: B1 VL with L30V, V47L, T51V, L54R, N93E
# B3: 374_B11 (antibody, V domains shown)
# VH: B1 VH with G33S, H35N, G55S, T58K
# VL: B1 VL with S31T, T51A, L54R, N93D, S94L
# B4: 373_A07 (antibody, V domains shown)
# VH: B1 VH with G33S, H35N, G50N, S59G
# VL: B1 VL with S31T, V47L, T51A, L54R, Y92D, S94L
# B5: 369_G09 (antibody, V domains shown)
# VH: B1 VH with S30D, G33S, H35N, G50N, S59G
# VL: B1 VL with L30V, S31T, V33L, V47L, T51A, L54R, N93D, S94L
# B6: 367_E10 (antibody, V domains shown)
# VH: B1 VH with G50S, S59G, S99A
# VL: B1 VL with V47L, T51A, L54R, N93E, S94L
# B7: 376_E09 (antibody, V domains shown)
# VH: B1 VH with S30D, G33S, H35N, G55S, T58K
# VL: B1 VL with S31T, V33L, V47L, T51A, L54R, A55H, N93D, S94T
# B8: 371_F12 (antibody, V domains shown)
# VH: B1 VH with S30D, G33S, H35N, G50N, T58K
# VL: B1 VL with L30I, V33L, V47L, T51A, L54R, Y92N, S94L
# B9: 369_A01 (antibody, V domains shown)
# VH: B1 VH with S30D, G33S, H35N, G55S, T58K, S59G
# VL: B1 VL with S31T, T51A, N93E, S94L
# B10: 376_G11 (antibody, V domains shown)
# VH: B1 VH with G33S, H35N, G55S, T58K
# VL: B1 VL with L30V, S31T, T51A, S94L
# B11: 367_F08 (antibody, V domains shown)
# VH: B1 VH with G50S, G55S, S99A
# VL: B1 VL with T51A, L54R, Y92N, N93E, S94L
# B12: 371_B10 (antibody, V domains shown)
# VH: B1 VH with S30D, G33S, H35N, G50N, S59G
# VL: B1 VL with L30V, V47L, T51A, L54R, N93D, S94L
# B13: 369_F04 (antibody, V domains shown)
# VH: B1 VH with H35N
# VL: B1 VL with L30I, V47L, T51A, L54R, A55H, N93D, S94N
# B14: 373_D09 (antibody, V domains shown)
# VH: B1 VH with S30D, G33S, H35N, G55S
# VL: B1 VL with S31T, V33L, T51A, L54R, A55H, N93E, S94N
# B15: 373_H12 (antibody, V domains shown)
# VH: B1 VH with S31D, G33S, H35N, G55S, T58K, S59G
# VL: B1 VL with S31T, V33L, V47L, T51A, L54R
# B16: 365_E03 (antibody, V domains shown)
# VH: B1 VH with S30D, G33S, H35N, G50N, S59G
# VL: B1 VL with S31T, V47L, T51A, A55H, Y92D, N93E, S94R
# B17: 365_H04 (antibody, V domains shown)
# VH: B1 VH with S31D, H35N, G55S, T58K
# VL: B1 VL with S31T, T51A, L54R, N93E
# B18: 367_G08 (antibody, V domains shown)
# VH: B1 VH with S30D, H35N, G50N, T58K, S59G
# VL: B1 VL with V33L, V47L, T51A, L54R, N93E, S94N
# B19: 374_C07 (antibody, V domains shown)
# VH: B1 VH with S30D, G33S, H35N, G50N
# VL: B1 VL with L30I, V33L, V47L, T51A, L54R, Y92D, N93E, S94L
# B20: 376_G01 (antibody, V domains shown)
# VH: B1 VH with S30D, S31D, G33S, H35N, G55S, T58K
# VL: B1 VL with T51V, L54R, N93E, S94L
# B21: 374_E04 (antibody, V domains shown)
# VH: B1 VH with G33S, H35N, G55S, T58K
# VL: B1 VL with V33L, V47L, T51V, L54R, S94N
# B22: 374_G02 (antibody, V domains shown)
# VH: B1 VH with S30D, G33S, H35N, G55S
# VL: B1 VL with S31T, V33L, V47L, T51A, T52S, A55Q, N93D, S94T
# B23: 373_F02 (antibody, V domains shown)
# VH: B1 VH with S30D, G33S, H35N, G55S, T58K
# VL: B1 VL with S31T, V33L, V47L, T51A, L54R, N93D, S94T
# B24: 366_C03 (antibody, V domains shown)
# VH: B1 VH with S30D, H35N, G50N, S59G
# VL: B1 VL with V33L, T51A, L54R, N93S, S94N
# B25: 367_F10 (antibody, V domains shown)
# VH: B1 VH with S30D, H35N, G55S, S99A
# VL: B1 VL with S31T, V33L, V47L, T51A, L54R, N93D, S94T
# B26: 365_E08 (antibody, V domains shown)
# VH: B1 VH with S30D, G33S, H35N, G55S
# VL: B1 VL with L30I, T51A, N93D, S94L
# B27: 375_B10 (antibody, V domains shown)
# VH: B1 VH with S30D, G33S, H35N, G55S
# VL: B1 VL with V33L, V47L, T51A, L54R, A55H, N93D, S94L
# B28: 369_E04 (antibody, V domains shown)
# VH: B1 VH with S31D, G33S, H35N, G55S, T58K
# VL: B1 VL with T51A, L54R, N93S, S94L
# B29: 372_H03 (antibody, V domains shown)
# VH: B1 VH with S30D, H35N, G50N, T58K
# VL: B1 VL with L30I, S31T, V47L, T51A, S94L
# B30: 371_B05 (antibody, V domains shown)
# VH: B1 VH with G33S, H35N, G55S
# VL: B1 VL with S31T, V33L, T51A, Y92D, N93E, S94T
# B31: 367_D02 (antibody, V domains shown)
# VH: B1 VH with S30D, S31D, G33S, H35N, G50N
# VL: B1 VL with L30V, S31T, V47L, T51A, L54R, N93E, S94N
# B32: 376_H08 (antibody, V domains shown)
# VH: B1 VH with S30D, H35N, G50N, T58K, S59G
# VL: B1 VL with S31T, V33L, V47L, T51A, L54R, A55H, Y92D, N93S, S94L
# B33: 366_E03 (antibody, V domains shown)
# VH: B1 VH with S30D, H35N, G50N, T58K
# VL: B1 VL with S31T, V33L, T51A, L54R, A55H, N93S, S94N
# B34: 376_C07 (antibody, V domains shown)
# VH: B1 VH with G33S, H35N, G55S, T58K, S59G
# VL: B1 VL with V47L, T51A, L54R, A55H, N93D, S94L
# Target: human Fc (human)
# Test: ELISA, negative control
row,Binder,optical density [OD]
1,B1,0.3
2,B2,0.165
3,B3,0.17
4,B4,0.177
5,B5,0.395
6,B6,0.271
7,B7,0.246
8,B8,0.413
9,B9,0.456
10,B10,0.285
11,B11,0.299
12,B12,0.387
13,B13,0.369
14,B14,0.16
15,B15,0.162
16,B16,0.314
17,B17,0.371

row,Binder,optical density [OD]
1,B18,0.33
2,B19,0.225
3,B20,0.227
4,B21,0.169
5,B22,0.175
6,B23,0.175
7,B24,0.274
8,B25,0.253
9,B26,0.298
10,B27,0.17
11,B28,0.387
12,B29,0.437
13,B30,0.246
14,B31,0.321
15,B32,0.274
16,B33,0.384
17,B34,0.265
